Measurements published in the supplement of paper PMC10567573.

B1: RTP4 (parent)
chain: TYWEHWTSQGQVRMRLFGQRCQKC

Variants of: B1
Assay: protein stability index of a GFP-peptide fusion (GPS, HEK-293T) (PSI 1-6); higher = more stable
Details: c terminus: a fixed tail appended
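Also: lentivirally expressed fusions sorted by FACS into six bins by GFP to DsRed ratio, PSI derived from sequencing read proportions per bin multiplied by bin number.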

Protein stability index of substitutions, site by site:
L16: K 1.25 | R 1.91 | C 2.99 | I 1.62 | V 1.81 | A 1.6 | S 1.75 | Q 1.79 | W 1.62 | N 2.43 | P 2.13 | D 2.85 | T 1.14 | Y 2.61 | H 2.34 | G 2.13 | F 2.22
S8: L 1.23 | I 2.05 | E 1.76 | Y 1.82 | D 1.87 | M 3.02 | A 3.23 | K 2.5 | H 2.56 | C 1.79 | N 1.32 | T 3.23 | P 1.66 | R 1.89 | Q 1.77 | V 1.67 | G 2.05
M14: E 2.36 | A 2 | W 1.77 | S 1.5 | Q 1.73 | T 1.84 | H 2.18 | C 2.58 | D 2.05 | Y 1.9 | F 1.63 | N 1.69 | G 2.51 | V 1.89 | K 2.9 | L 1.39 | R 2.29
G10: R 1.69 | D 2.21 | H 1.76 | S 2.39 | C 1.87 | I 2.47 | L 1.89 | Q 1.8 | M 1.68 | W 2.07 | T 2.27 | A 1.33 | P 1.91 | F 2.53 | Y 1.92
Q9: T 1.8 | H 1.18 | A 1.95 | W 1.69 | N 2.08 | E 2.02 | D 1.4 | I 2.08 | P 1.6 | G 1.27 | C 1.48 | K 2.17 | F 1.77 | R 2.24 | V 2.5
H5: M 1.53 | E 2.19 | D 2.07 | A 2.43 | W 1.16 | G 1.62 | N 1.59 | T 2.12 | Y 1.58 | R 1.38 | P 3.28 | Q 2.43
W3: Q 2.51 | D 2.88 | G 1.63 | C 5.05 | E 1.77 | T 3.21 | K 2.96 | P 2.25 | M 2.28 | Y 1.54 | R 1.73 | N 2.98 | H 3.61 | F 1.75 | I 1.69 | A 2.07
G18: I 2.39 | Y 2.41 | E 2.24 | R 2.02 | F 1.87 | Q 1.4 | S 1.46 | W 1.74 | K 1.86 | M 1.36 | N 2.14 | C 2.03 | P 1.81 | H 2.23 | A 1.96 | D 2.04 | T 1.91
Q11: P 2.14 | Y 1.58 | R 2.6 | M 2.4 | N 2.01 | S 2.59 | D 2.41 | I 2.31 | K 2.48 | H 1.65 | C 3.14 | G 2.64 | A 1.84 | L 2.02
Q22: R 1.92 | K 1.61 | V 1.36 | W 4.47 | I 1.52 | T 1.94 | P 1.68 | H 1.69 | N 1.71 | S 1.33 | E 1.09 | L 2.36 | A 2.06
F17: A 1.87 | S 2.27 | I 1.67 | D 2.01 | C 2.57 | Y 1.55 | K 1.92 | T 2.02 | E 2.29 | Q 2.26 | P 2.38 | N 2.9 | H 2.79 | G 2.31 | W 2.44 | L 1.85 | M 2.37
T7: H 1.96 | D 1.86 | L 1.61 | A 1.53 | P 2.27 | K 2.04 | C 3.39 | N 1.76 | W 2.06 | S 1.79 | R 1.98 | V 1.93 | Q 1.77 | F 1.21 | Y 1.2
R20: S 1.65 | W 2.49 | L 1.75 | D 2.47 | M 2.69 | I 1.03 | C 2.72 | H 1.63 | Y 1.97 | Q 1.24 | F 1.82 | T 2.22 | G 1.93 | N 1.34 | P 1.78 | K 1.86 | E 1.57
Q19: E 1.62 | A 1.98 | Y 1.03 | P 1.25 | K 1.8 | S 1.61 | I 2.31 | R 1.46 | F 1.66 | C 2.9 | V 2.23 | W 2.6 | T 1.05 | L 1.04 | N 1.58 | G 1.45 | H 2.6 | D 1.97
R15: C 3.05 | P 1.87 | V 1.64 | F 1.75 | D 2.71 | H 1.85 | E 2.07 | T 1.7 | G 1.6 | A 2.06 | M 2.09 | Q 1.86 | S 1.21 | K 2.31 | L 1.97 | N 2.1 | I 2.12
W6: D 3.38 | G 1.75 | C 2.25 | M 1.52 | R 2.7 | L 1.61 | P 2.07 | K 1.6 | A 2.4 | Q 2.65 | S 2.13 | T 1.94 | V 2.32 | Y 2.05 | E 1.95 | F 1.39 | N 2.11
K23: D 1.79 | A 2.52 | C 1.63
T1: V 1.86 | Q 2.15 | H 2.48 | P 2.27 | L 1.88 | G 2.81 | Y 2.21 | W 2.35 | S 2.18 | C 2.67 | D 1.82 | E 1.36
Y2: W 1.53 | P 2.1 | A 2.35 | N 2.49 | K 2.19 | C 2.69 | I 1.74 | T 2.46 | H 1.99 | M 2.39 | G 3.25 | F 1.32 | D 1.66 | E 2.98
C21: N 2.15 | Y 1.81 | K 2.45 | E 2.46 | L 2.4 | P 3.25 | Q 2.12 | H 2.23 | M 1.7 | R 2.4 | I 1.98 | T 1.78 | F 1.39 | G 2.46 | D 2.75 | A 1.94
E4: P 1.49 | Q 3.01 | I 1.77 | H 1.71 | C 1.15 | G 2.45 | M 2.86 | N 1.1 | K 3.32
R13: D 2.04 | E 1.74 | S 1.59 | V 1.65 | P 1.92 | N 1.54 | H 2.4 | L 1.69 | W 2.11 | I 2.76 | C 2.78 | G 1.65
V12: Y 2.65 | K 1.57 | P 1.98 | Q 1.51 | H 2.21 | D 1.7 | A 1.04 | R 1.76 | T 2.09 | I 1.61 | E 2.19 | C 2.42 | W 3.46 | N 1.65
